Source: patent publication US11278600B2, “Human alpha-galactosidase variants” (Codexis, Inc., priority 2014, dated 2022)
Substitutions are numbered along the chain they refer to.

B1: 264 (protein)
chain: LDNGLARTPTMGWLHWERFMCNLDCQEEPDSCISEKLFMEMAELMVSEGWKDAGYEYLCIDDCWMAPQRDSEGRLQADPQRFPHGIRQLANYVHSKGLKFGIYADVGNKTCAGFPGSFGYYDIDAQTFADWGVDLLKFDGCYCDSLENLADGYKHMSLALNRTGRSIVYSCEWPLYMWPFQKPNYTEIRQYCNHWRNFADIDDSWASIKSILDWTSFNQEKIVDVAGPGGWNDPDMLVIGNFGLSWDQQVTQMALWAIMAAPLFMSNDLRHISPQAKALLQDKDVIAINQDPLGKQGYQLRKGDNFEVWERPLSGLAWAVAVINRQEIGGPRSYTIAVASLGDGVACNPACFITQLLPVKRKLGFYEWTSRLKSHVNPTGTVLLQLENTMQMSLKDLL
modifications: Synthetic Polypeptide sequence of Variant No. 264 of mature Human GLA
B2: 265 (protein)
chain: B1 chain with D247N, K302Q, V322M, D343K
modifications: Synthetic Polypeptide sequence of Variant No. 265 of mature Human GLA
B3: 266 (protein)
chain: B1 chain with K221T, D247N, K302Q, V322I, D343E, F365L, V376I
modifications: Synthetic Polypeptide sequence of Variant No. 266 of mature Human GLA
B4: 267 (protein)
chain: B1 chain with K221T, V322M, F365L, V376I
modifications: Synthetic Polypeptide sequence of Variant No. 267 of mature Human GLA
B5: 268 (protein)
chain: B1 chain with K221R, D247N, K302Q, V322M, D343K
modifications: Synthetic Polypeptide sequence of Variant No. 268 of mature Human GLA
B6: 269 (protein)
chain: B1 chain with L37I, F100L, K302Q, V322I, D343K, V376I
modifications: Synthetic Polypeptide sequence of Variant No. 269 of mature Human GLA
B7: 270 (protein)
chain: LDNGLARTPTMGWLHWERFMCNLDCQEEPDSCISEKLFMEMAERMVSEGWKDAGYEYLCIDDCWMAPQRDSEGRLQADPQRFPHGIRQLANYVHSKGLKLGIYADVGNKTCAGFPGSFGYYDIDAQTFADWGVDLLKFDGCYYDSLENLADGYKHMSLALNRTGRSIVYSCEWPLYMWPFQKPNYTEIRQYCNHWRNFADIDDSWASIKSILDWTSFNQERIVDVAGPGGWNDPDMLVIGNFGLSWNQQVTQMALWAIMAAPLFMSNDLRHISPQAKALLQDKDVIAINQDPLGKQGYQLRQGDNFEVWERPLSGLAWAVAMINRQEIGGPRSYTIPVASLGKGVACNPGCFITQLLPVKRKLGFYEWTSRLRSHINPTGTVLLQLENTMQMSLKDLL
modifications: Synthetic Polypeptide sequence of Variant No. 270 of mature Human GLA
B8: 271 (protein)
chain: B7 chain with Y143C, E187G
modifications: Synthetic Polypeptide sequence of Variant No. 271 of mature Human GLA
B9: 272 (protein)
chain: B7 chain with Y143C, P337A, G350A
modifications: Synthetic Polypeptide sequence of Variant No. 272 of mature Human GLA
B10: 273 (protein)
chain: B7 chain with Y143C, P337A, G350A, E367D, T369D
modifications: Synthetic Polypeptide sequence of Variant No. 273 of mature Human GLA
B11: 274 (protein)
chain: B7 chain with Y143C, F217R, P337A
modifications: Synthetic Polypeptide sequence of Variant No. 274 of mature Human GLA
B12: 275 (protein)
chain: B7 chain with Y143C, F217R, N247D, G350A
modifications: Synthetic Polypeptide sequence of Variant No. 275 of mature Human GLA
B13: 276 (protein)
chain: B7 chain with Y143C, F217R, N247D, L316D, E367D, T369D
modifications: Synthetic Polypeptide sequence of Variant No. 276 of mature Human GLA

Experiment: HTP-analysis of supernatants pretreated with bovine serum (MUGal hydrolysis)
Type: biochemical
Settings: activity of the variant/activity of Rd2BB (SEQ ID NO: 10), yeast culture supernatant
In short: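 Yeast INVSc1 culture supernatants containing secreted GLA variants were mixed with bovine serum (20:80) and held 1 h at 37° C. Serum-treated samples then reacted with MUGal (4 mM stock) in citrate/McIlvaine buffer (pH 4.3/4.8) for 180 min at 37° C., were quenched with sodium carbonate, and read by fluorescence (Ex 355, Em 448 nm).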

| Molecule | Relative Activity of GLA Variants After Challenge with Serum |
| --- | --- |
| B1 | ++ (++ = 1.5 to 2.5 relative activity over Rd2BB (SEQ ID NO: 10)) |
| B2 | + (+ = 0.5 to 1.5 relative activity over Rd2BB (SEQ ID NO: 10)) |
| B3 | ++ (++ = 1.5 to 2.5 relative activity over Rd2BB (SEQ ID NO: 10)) |
| B4 | +++ (+++ = >2.5 relative activity over Rd2BB (SEQ ID NO: 10)) |
| B5 | + (+ = 0.5 to 1.5 relative activity over Rd2BB (SEQ ID NO: 10)) |
| B6 | + (+ = 0.5 to 1.5 relative activity over Rd2BB (SEQ ID NO: 10)) |
| B7 | + (+ = 0.5 to 1.5 relative activity over Rd2BB (SEQ ID NO: 10)) |
| B8 | + (+ = 0.5 to 1.5 relative activity over Rd2BB (SEQ ID NO: 10)) |
| B9 | + (+ = 0.5 to 1.5 relative activity over Rd2BB (SEQ ID NO: 10)) |
| B10 | + (+ = 0.5 to 1.5 relative activity over Rd2BB (SEQ ID NO: 10)) |
| B11 | + (+ = 0.5 to 1.5 relative activity over Rd2BB (SEQ ID NO: 10)) |
| B12 | ++ (++ = 1.5 to 2.5 relative activity over Rd2BB (SEQ ID NO: 10)) |
| B13 | +++ (+++ = >2.5 relative activity over Rd2BB (SEQ ID NO: 10)) |

Experiment: HTP-analysis of supernatants pretreated with acid (MUGal hydrolysis)
Type: biochemical
Settings: challenge at pH 4.2; activity of the variant/activity of Rd2BB (SEQ ID NO: 10); yeast culture supernatant
In short: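 Yeast INVSc1 supernatant, GLA variants; acid challenge: McIlvaine pH 3.3-4.3, 37° C., 1-3 h. Assay: MUGal in McIlvaine pH 4.8 plus citrate pH 4.3, 37° C., 30-180 min, Na2CO3 stop, Ex 355/Em 448 nm.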

| Molecule | Relative Activity of GLA Variants After Challenge at pH 4.2 |
| --- | --- |
| B1 | ++ (++ = 1.5 to 2.5 relative activity over Rd2BB (SEQ ID NO: 10)) |
| B2 | + (+ = 0.5 to 1.5 relative activity over Rd2BB (SEQ ID NO: 10)) |
| B3 | ++ (++ = 1.5 to 2.5 relative activity over Rd2BB (SEQ ID NO: 10)) |
| B4 | +++ (+++ = >2.5 relative activity over Rd2BB (SEQ ID NO: 10)) |
| B5 | + (+ = 0.5 to 1.5 relative activity over Rd2BB (SEQ ID NO: 10)) |
| B6 | + (+ = 0.5 to 1.5 relative activity over Rd2BB (SEQ ID NO: 10)) |
| B7 | + (+ = 0.5 to 1.5 relative activity over Rd2BB (SEQ ID NO: 10)) |
| B8 | + (+ = 0.5 to 1.5 relative activity over Rd2BB (SEQ ID NO: 10)) |
| B9 | + (+ = 0.5 to 1.5 relative activity over Rd2BB (SEQ ID NO: 10)) |
| B10 | + (+ = 0.5 to 1.5 relative activity over Rd2BB (SEQ ID NO: 10)) |
| B11 | + (+ = 0.5 to 1.5 relative activity over Rd2BB (SEQ ID NO: 10)) |
| B12 | ++ (++ = 1.5 to 2.5 relative activity over Rd2BB (SEQ ID NO: 10)) |
| B13 | +++ (+++ = >2.5 relative activity over Rd2BB (SEQ ID NO: 10)) |

Experiment: HTP-analysis of supernatants pretreated with base (MUGal hydrolysis)
Type: biochemical
Settings: challenge at pH 7.6; activity of the variant/activity of Rd2BB (SEQ ID NO: 10); yeast culture supernatant
In short: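 GLA variants were secreted by transformed INVSc1 yeast grown 66-84 h at 30° C. Supernatants were exposed to neutral-to-basic buffers (pH 7.0-9.7) at 37° C for 1-18 h, then assayed with MUGal in acidic citrate/McIlvaine buffer, with fluorescence read after quenching.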

| Molecule | Relative Activity of GLA Variants After Challenge at pH 7.6 |
| --- | --- |
| B1 | +++ (+++ = >2.5 relative activity over Rd2BB (SEQ ID NO: 10)) |
| B2 | + (+ = 0.5 to 1.5 relative activity over Rd2BB (SEQ ID NO: 10)) |
| B3 | +++ (+++ = >2.5 relative activity over Rd2BB (SEQ ID NO: 10)) |
| B4 | +++ (+++ = >2.5 relative activity over Rd2BB (SEQ ID NO: 10)) |
| B5 | + (+ = 0.5 to 1.5 relative activity over Rd2BB (SEQ ID NO: 10)) |
| B6 | + (+ = 0.5 to 1.5 relative activity over Rd2BB (SEQ ID NO: 10)) |
| B7 | + (+ = 0.5 to 1.5 relative activity over Rd2BB (SEQ ID NO: 10)) |
| B8 | + (+ = 0.5 to 1.5 relative activity over Rd2BB (SEQ ID NO: 10)) |
| B9 | + (+ = 0.5 to 1.5 relative activity over Rd2BB (SEQ ID NO: 10)) |
| B10 | + (+ = 0.5 to 1.5 relative activity over Rd2BB (SEQ ID NO: 10)) |
| B11 | + (+ = 0.5 to 1.5 relative activity over Rd2BB (SEQ ID NO: 10)) |
| B12 | ++ (++ = 1.5 to 2.5 relative activity over Rd2BB (SEQ ID NO: 10)) |
| B13 | +++ (+++ = >2.5 relative activity over Rd2BB (SEQ ID NO: 10)) |

Experiment: HTP-analysis of yeast culture supernatants, no challenge (MUGal hydrolysis)
Type: biochemical
Settings: activity of the variant/activity of Rd2BB (SEQ ID NO: 10), yeast culture supernatant
In short: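 GLA variants expressed in yeast INVSc1, secreted into SD-Ura broth over 66-84 h at 30° C; clarified supernatants tested without challenge. Supernatant mixed with McIlvaine buffer pH 4.8 and 2 mM MUGal (citrate/KCl, pH 4.6), 37° C for 30-180 min, carbonate-quenched, fluorescence Ex 355/Em 448 nm.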

| Molecule | Relative Activity of GLA Variants After No Challenge (NC) |
| --- | --- |
| B1 | ++ (++ = 1.5 to 2.5 relative activity over Rd2BB (SEQ ID NO: 10)) |
| B2 | + (+ = 0.5 to 1.5 relative activity over Rd2BB (SEQ ID NO: 10)) |
| B3 | ++ (++ = 1.5 to 2.5 relative activity over Rd2BB (SEQ ID NO: 10)) |
| B4 | +++ (+++ = >2.5 relative activity over Rd2BB (SEQ ID NO: 10)) |
| B5 | + (+ = 0.5 to 1.5 relative activity over Rd2BB (SEQ ID NO: 10)) |
| B6 | − (− = <0.5 relative activity over Rd2BB (SEQ ID NO: 10)) |
| B7 | + (+ = 0.5 to 1.5 relative activity over Rd2BB (SEQ ID NO: 10)) |
| B8 | − (− = <0.5 relative activity over Rd2BB (SEQ ID NO: 10)) |
| B9 | + (+ = 0.5 to 1.5 relative activity over Rd2BB (SEQ ID NO: 10)) |
| B10 | + (+ = 0.5 to 1.5 relative activity over Rd2BB (SEQ ID NO: 10)) |
| B11 | + (+ = 0.5 to 1.5 relative activity over Rd2BB (SEQ ID NO: 10)) |
| B12 | ++ (++ = 1.5 to 2.5 relative activity over Rd2BB (SEQ ID NO: 10)) |
| B13 | +++ (+++ = >2.5 relative activity over Rd2BB (SEQ ID NO: 10)) |
